The supplement of paper PMC11908140

B1: library; numbered along this chain (parent)
chain: MRKPRAAVGSGHRKQAASQEGRQKHAKNNSQAKPSACDGLARQPEEVVLQASVSSYHLFRDVAEVTAFRGSLLSWYDQEKRDLPWRRRAEDEMDLDRRAYAVWVSEVMLQQTQVATVINYYTGWMQKWPTLQDLASASLEEVNQLWAGLGYYSRGRRLQEGARKVVEELGGHMPRTAETLQQLLPGVGRYTAGAIASIAFGQATGVVDGNVARVLCRVRAIGADPSSTLVSQQLWGLAQQLVDPARPGDFNQAAMELGATVCTPQRPLCSQCPVESLCRARQRVEQEQLLASGSLSGSPDVEECAPNTGQCHLCLPPSEPWDQTLGVVNFPRKASRKPPREESSATCVLEQPGALGAQILLVQRPNSGLLAGLWEFPSVTWEPSEQLQRKALLQELQRWAGPLPATHLRHLGEVVHTFSHIKLTYQVYGLALEGQTPVTTVPPGARWLTQEEFHTAAVSTAMKKVFRVYQGQQPGTCMGSKRSQVSSPCSRKKPRMGQQVLDNFFRSHISTDAHSLNSAAQ

Variants of: B1
Assay: 8OG:A repair function score (normalized; synonymous = 0, nonsense = -1) (normalized log-likelihood score); higher = more repair activity (WT-like)
Settings: with 8OG:A DNA repair reporter (GFP) in HEK-293 MUTYH KO cells
Summary of the method: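 Lentiviral MUTYH cDNA NNN codon-scan libraries in HEK-293 MUTYH knockout cells (10 pg/ml doxycycline) were co-transfected with an 8OG:A GFP repair reporter plus mCherry. At 72 h, viable mCherry+ cells were sorted into GFP+ (repair) and GFP− bins, three replicates per tile, then tile amplicons were sequenced. Per-tile Rosace fitness scores became a normalized repair function score anchored on synonymous and nonsense distributions. Synonymous medians were set to 0 and nonsense to -1; variants under 300 counts per million at the start were removed.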

8OG:A repair function score: each site, then its substitutions
N517: G 0.0215, T -0.0674, M 0.0171, H 0.0285, S 0.00189, C -0.0105, E -0.0872, K -0.077, V -0.00815, Q 0.00486, I -0.00121, L -0.0164, Y -0.0106, A -0.00673, D 0.0077, R 9.97e-05, P 0.0174, F -0.0651, W -0.0342
L516: A 0.017, I 0.0106, C 0.00795, V 0.0206, D -0.0107, Y 0.0181, K 0.00908, E 0.0196, R -0.0194, P 0.00373, N 0.0104, S 0.0241, M 0.00845, T 0.0209, W -0.0603, Q 0.0225, F 0.0067, H 0.0157, G 0.00843
S515: M -0.00894, R 0.00703, V 0.00837, K -0.00207, E 0.0198, C -0.0274, A -0.018, N 0.0152, Y 0.025, W -0.0167, D -0.0425, H -0.0115, Q -0.00958, F -0.00769, P -0.0381, L -0.00831, I -0.0207, T -0.00495, G -0.000426
S518: I -0.00126, G 0.0246, N 0.00686, P -0.0287, W -0.0247, T 0.014, R -0.0226, D -0.00955, F -0.0829, A 0.00286, V -0.01, L -0.0274, C -0.0625, H -0.0153, E 0.0194, Q -0.0542, Y 0.0286, K -0.0195
A520: W -0.0228, I -0.0239, K 0.00969, Q 0.00885, F 0.00424, N 0.0153, T -0.000144, C -0.000175, D -0.0192, E 0.0123, M 0.0283, V -0.0172, H -0.0164, P 0.0147, G 0.00375, R 0.027, Y 0.0286, S -0.0114, L -0.0269
Q521: D -0.0822, M 0.0277, L -0.0455, N 0.00751, V -0.0096, C 0.00296, I -0.0216, K -0.0417, E 0.00527, T -0.0167, P -0.0312, H 0.0162, W 0.00491, R -0.0139, A 0.0136, S -0.00358, G -0.018, Y 0.025, F -0.0187
H514: Y -0.00319, W -0.03
A519: H -0.00545, S 0.00395, F 0.0212, L -0.012, N -0.00616, P 0.0175, T -0.0144, Y 0.0154, M -0.00851, G -0.00167, V -0.0127, W 0.00269, R 0.013, K 0.0032, D 0.0164, Q 0.023, I -0.0243, C -0.00674, E 0.0285
